Experimental data reported in patent US20040213795A1.

Molecular target: Murine PD-1 fusion protein (mouse) (UniProt Q02242)
Experiment: SPR (BIAcore 3000), murine PD-1 fusion immobilized on CM5 chip, antibody 25 nM to 500 nM in flow

Murine PD-1 fusion protein (mouse), sequence (Q02242 25-167): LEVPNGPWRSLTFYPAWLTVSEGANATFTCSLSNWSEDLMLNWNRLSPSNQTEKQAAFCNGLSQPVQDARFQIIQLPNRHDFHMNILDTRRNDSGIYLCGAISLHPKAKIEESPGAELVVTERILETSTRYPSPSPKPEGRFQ

Ka: 2.6e+06 M⁻¹
Kd: 380 nM
B1: Anti-mouse PD1 antibody J43 (antibody, from another filing, V domains shown)
VH: EVRLLESGGGLVKPEGSLKLSCVASGFTFSDYFMSWVRQAPGKGLEWVAHIYTKSYNYATYYSGSVKGRFTISRDDSRSMVYLQMNNLRTEDTATYYCTRDGSGYPSLDFWGQGTQVTVSS
VL: YELTQPPSASVNVGETVKITCSGDQLPKYFADWFHQRSDQTILQVIYDDNKRPSGIPERISGSSSGTTATLTIRDVRAEDEGDYYCFSGYVDSDSKLYVFGSGTQLTVLG
